Experimental findings from PMC3506662, “The Peripheral Binding of 14-3-3γ to Membranes Involves Isoform-Specific Histidine Residues” (PLoS ONE, 2012) are described below.

Assay [1] concerns the target T1, human 14-3-3γ, wild-type (human, UniProt P61981 2-247).
T1 construct: 14-3-3 protein gamma, human; d14-3-3γ is the same protein after extensive dialysis into phosphate-free 10 mM Na-Hepes, pH 7.4; also called wt-14-3-3γ; d14-3-3γ; source: E. coli (BL-21, codon+), GST fusion purified on glutathione-Sepharose 4B, cleaved by thrombin, further purified
T1 sequence: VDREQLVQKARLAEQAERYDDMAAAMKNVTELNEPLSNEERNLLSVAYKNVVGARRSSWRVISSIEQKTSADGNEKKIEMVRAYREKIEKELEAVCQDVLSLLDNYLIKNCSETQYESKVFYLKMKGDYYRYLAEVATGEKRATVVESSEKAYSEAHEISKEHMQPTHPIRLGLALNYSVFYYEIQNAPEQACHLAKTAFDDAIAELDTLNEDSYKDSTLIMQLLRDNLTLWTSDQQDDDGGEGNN
The assay is described as follows: SPR; data not shown; Biacore 3000, 25°C; wt-d14-3-3γ immobilised by amine coupling on CM5 (about 5 000 RU); THp-(1-43) injected in 10 mM Na-Hepes, pH 7.4, 0.005% P20; 0 mM salt. The following applies: both partners purified. Background: In SPR one partner is held on a chip, and binding of the other changes the refractive index at the surface.

Assay [2] deals with T1, human 14-3-3γ, wild-type. The assay is described as follows: differential scanning fluorimetry; d14-3-3γ titrated with peptide from a 0.21 mM stock; SYPRO Orange; 20 to 95°C at 2°C/min; shift of Tm fitted to equation 1; legend: 10 µM subunit in 10 mM Na-Hepes, pH 7.4, 150 mM NaCl. As to conditions: both partners purified.

Where no end group is shown, it is not given here. [ ]: non-standard residue; d: D form. pS = N[C@@H](COP(=O)(O)O)C(=O)O

B1: THp-(1-43), Ser19-phosphorylated N-terminal peptide of human tyrosine hydroxylase isoform 1 (peptide)
peptide: MPTPDATTPQAKGFRRAV[pS]ELDAKQAEAIMSPRFIGRRQSLIE
notes: also called phosphopeptide; source: synthetic peptide (CPC Scientific), approx. 90% purity
With B1, the Kd with human 14-3-3γ, wild-type [1] is around 220 nM; in the assay with human 14-3-3γ, wild-type [2], around 190 nM.

Broadly, the Kd is a measure of binding affinity in units of concentration.
